The text below walks through data of US10400249B2, “HPPD variants and methods of use” (priority 2014, dated 2019).

Where only a bound is given, the exact number is not on record here.

The test system of data set [1] is Pseudomonas fluorescens HPPD protein. As to the kind of experiment: brown color assay: HPPD extracts spotted on solid media containing tyrosine and an HPPD inhibitor. Type of data set: biochemical. The settings on record: TBT, DKN and mesotrione 500-2000 uM, compared with PfHPPD and PfEvo33. As to the method:
A specific, although non-limiting, type of assay that can be used to evaluate the HPPD sequences of the invention is a colorimetric assay. In this assay, a YT-broth-type culture medium with 1% agarose, 5 mM L-Tyrosine and 42 mM Succinate, which contains the selection agent for the vector pSE420 (Invitrogen, Karlsruhe, Germany) or a modified version of pSE420 (pSE420(RI)NX) is poured into deep well plates. E. coli culture in the exponential growth phase which contains the vector pSE420-HPPDx (HPPDx means any gene coding for a putative HPPD enzyme/protein) is applied to each well.
The HPPD PfEvo33 mutant (described in International Patent Application No PCT/US2013/59598 (filed on Sep. 13, 2013) and set forth herein as SEQ ID NO:5) was mutagenized at positions 334 and 336. Saturated mutagenesis of these positions was carried out using the QUIKCHANGE® lightning kit. Mutants were pooled and transformed into DH5alpha E. coli cells. Six hundred individual clones were screened for tolerance to the HPPD inhibitor tembotrione (TBT). The clones were grown in LB media plus kanamycin at 37 degrees C. in a shaker until an OD600 nm of 0.3 was reached. Cultures were then switched to 30 degrees C. and incubated for an additional 17 hours. Cultures were spun down and cell pellets resuspended in 10 mM Hepes/KOH pH 7.6, 4 mM MgCl2, 1 mM DTT. […]
The mutants were analyzed using a brown color assay. […]

Data set [2] shares this test system. As to the kind of experiment: OD assay: HPPD activity and pI50 from HPP remaining after derivatisation with DNP. It is filed as biochemical. The settings on record: for Activity DeltaE/24 min μg Protein: HPPD enzyme activity of the clone; for tolerance (pI50) Cmpd. 2: inhibitor Cmpd. 2; for tolerance (pI50) DKN: inhibitor diketonitrile (DKN), negative log of molar concentration; for tolerance (pI50) MST: inhibitor mesotrione (MST); for tolerance (pI50) TBT: inhibitor tembotrione (TBT). In a few lines: (§1)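 Purified Pseudomonas fluorescens HPPD, room temperature. OD assay: 50 mM Tris-HCl pH 7.8, 0.5 mM HPP, 10 mM ascorbate, catalase, 24 min, remaining HPP derivatised with DNP, read at 405 nm, inhibitor 5.0×10^−6 to 5.0×10^−4 M. HGD assay: 200 mM Tris-HCl pH 7.6, 600 μM HPP, 20 μM FeSO4, coupled HGA dioxygenase, initial rates at 318 nm, inhibitor ≤100 μM, time-course gives inhibition type; pI50 from 4-parameter fits.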

For data set [3] the test system is unchanged. In words: HGD assay: HPPD activity coupled to HGA dioxygenase, pI50 and type of inhibition (time-course). It is filed as biochemical. Conditions: for tolerance (pI50) DKN: inhibitor diketonitrile (DKN); for tolerance (pI50) DKN / tolerance (pI50) MST / tolerance (pI50) TBT / tolerance (pI50) Cmpd. 1 / tolerance (pI50) Cmpd. 2 / tolerance (pI50) Cmpd. 3 / tolerance (pI50) Cmpd. 4 / tolerance (pI50) Cmpd. 5: HGD assay; for tolerance (pI50) MST: inhibitor mesotrione (MST); for tolerance (pI50) TBT: inhibitor tembotrione (TBT); for tolerance (pI50) Cmpd. 1: inhibitor Cmpd. 1; for tolerance (pI50) Cmpd. 2: inhibitor Cmpd. 2; for tolerance (pI50) Cmpd. 3: inhibitor Cmpd. 3; for tolerance (pI50) Cmpd. 4: inhibitor Cmpd. 4; for tolerance (pI50) Cmpd. 5: inhibitor Cmpd. 5. The gist of the method:
as §1

The test system of a further data set is T0 soybean plants. In words: greenhouse spray test of T0 soybean plants for tolerance to mesotrione. It is filed as in vivo. The settings on record: mesotrione 3X field rate, 316 grams AI per hectare, seven days after treatment. As for the experimental part: T0 soybean plants expressing an HPPD inhibitor tolerant enzyme of the present invention, along with a gene conferring tolerance to glyphosate and a gene conferring tolerance to glufosinate or having a “plant expression cassette”, which includes only an HPPD inhibitor tolerant enzyme of the present invention, were tested for tolerance to mesotrione. Prior greenhouse trials with the transgenic plants, soy transformants were routinely analyzed for the expression and presence of the transgenes using the ELISA protein detection method (see detailed description under item D and H). Only plants recovering in the selection media and having a detectable HPPD transgene protein expression were used for the herbicide tolerance analysis. A DeVries Tracker Sprayer was calibrated prior to each spraying. The chemical formulation used for mesotrione (MST) testing was Callisto® 4 SC formulation supplemented with ammonium sulfate and methylated rape seed oil (Actirob). Spray tests were conducted using 3× the field rate (equivalent to 9 fluid ounce per acre of the same herbicide formulation that containing 40% the active ingredient (AI), mesotrione), which equals 316 grams AI per hectare. Tolerance was evaluated one week after spraying. […] A tolerance rating of “0” was assigned to plants that their shoot apexes, newly emerged trifoliates and some axillary buds were completely bleached. A rating of “1” was assigned to plants having slight tolerance, i.e., the newest plant shoot tissues had some green leaves and are not bleached completely. A rating of “2” was assigned to plants showing moderate tolerance, i.e., more than 50% of the leaf area of the top three trifoliates showing no chlorosis or bleaching damage. A rating of “3” was assigned to plants showing nearly perfect tolerance, i.e., less than 10% of the leaf area showing chlorosis or very slight bleaching.

Where [4] appears, read: HT-single plant expression cassette.
Setting [5] is: HT-triple plant expression cassette.

B1: PfEvo43: PfHPPD variant E335P, G336F (protein)
chain: MADLYENPMGLMGFEFIEFASPTPGTLEPIFEIMGFTKVATHRSKNVHLYRQGEINLILNNEPNSIASYFAAEHGPSVCGMAFRVKDSQKAYNRALELGAQPIHIDTGPMELNLPAIKGIGGAPLYLIDRFGEGSSIYDIDFVYLEGVERNPVGAGLKVIDHLTHNVYRGRMVYWANFYEKLFNFREARYFDIKGEYTGLTSKAMSAPDGMIRIPLNEESSKGAGQIEEFLMQFNGEGIQHVAFLTDDLVKTWDALKKIGMRFMTAPPDTYYEMLEGRLPDHGEPVDQLQARGILLDGSSVEGDKRLLLQIFSETLMGPVFFEFIQRKGDDGFGPFNFKALFESIERDQVRRGVLTAD
modifications: HPPD variant - PfEvo43
notes: PfHPPD variant E335P, G336F
Take B1: the “brown color formation in presence of HPPD inhibitors” value in data set [1] is reported as “darkest color”. Also, in data set [2], the “Activity DeltaE/24 min μg Protein” value was 0.39 DeltaE/24 min μg Protein, the “tolerance (pI50) Cmpd. 2” value was greater than 5.6, the “tolerance (pI50) DKN” value came out at 4.1 and the “tolerance (pI50) MST” value was determined as 4.6. In data set [3], the “mechanism of inhibition by diketonitrile (DKN), time-course of inhibition” value (“mechanism of inhibition by diketonitrile” below) is reported as “fully reversible inhibition”; the “mechanism of inhibition by mesotrione (MST), time-course of inhibition” value (from here on “mechanism of inhibition by mesotrione”) was “fully reversible inhibition”; the “mechanism of inhibition by tembotrione (TBT), time-course of inhibition” value (“mechanism of inhibition by tembotrione” below) is “fully reversible inhibition”; the “tolerance (pI50) DKN” value amounted to 4.0. Also, in data set [3], the “tolerance (pI50) MST” value is on record as 5.1 and the “tolerance (pI50) TBT” value turned out to be 6.0. In the data set with T0 soybean plants (setting [4]), the “Number of T0 soybean plants with herbicide tolerance rating 0 (completely bleached)” value (“Number … (completely bleached)” below) is reported as 1, the “Number of T0 soybean plants with herbicide tolerance rating 1 (slight tolerance)” value (from here on “Number of T0 soybean plants … (slight tolerance)”) is given as 13, the “Number of T0 soybean plants with herbicide tolerance rating 2 (moderate tolerance)” value (“Number … (moderate tolerance)” below) turned out to be 25 and the “Number of T0 soybean plants with herbicide tolerance rating 3 (nearly perfect tolerance)” value (“Number … (nearly perfect tolerance)” for short) is 34. Further, in the data set with T0 soybean plants (setting [5]), the “Number … (completely bleached)” value was found to be 6, the “Number of T0 soybean plants … (slight tolerance)” value came to 18, the “Number … (moderate tolerance)” value amounted to 26 and the “Number … (nearly perfect tolerance)” value stood at 20.

B2: FLP130: PfHPPD variant E335P, G336F, A340E (protein)
chain: MADLYENPMGLMGFEFIEFASPTPGTLEPIFEIMGFTKVATHRSKNVHLYRQGEINLILNNEPNSIASYFAAEHGPSVCGMAFRVKDSQKAYNRALELGAQPIHIDTGPMELNLPAIKGIGGAPLYLIDRFGEGSSIYDIDFVYLEGVERNPVGAGLKVIDHLTHNVYRGRMVYWANFYEKLFNFREARYFDIKGEYTGLTSKAMSAPDGMIRIPLNEESSKGAGQIEEFLMQFNGEGIQHVAFLTDDLVKTWDALKKIGMRFMTAPPDTYYEMLEGRLPDHGEPVDQLQARGILLDGSSVEGDKRLLLQIFSETLMGPVFFEFIQRKGDDGFGPFNFKELFESIERDQVRRGVLTAD
modifications: HPPD variant - FLP130
notes: PfHPPD variant E335P, G336F, A340E
As to B2, in data set [2], the “Activity DeltaE/24 min μg Protein” value amounted to 0.39 DeltaE/24 min μg Protein, the “tolerance (pI50) Cmpd. 2” value was 5.5, the “tolerance (pI50) DKN” value is listed as 3.2 and the “tolerance (pI50) MST” value is 3.7. Also, in data set [2], the “tolerance (pI50) TBT” value came out at 4.8. Also, in data set [3], the “mechanism of inhibition by diketonitrile” value is reported as “fully reversible inhibitors”; the “mechanism of inhibition by mesotrione” value is “fully reversible inhibitors”; the “mechanism of inhibition by tembotrione” value is “fully reversible inhibitors”; the “tolerance (pI50) Cmpd. 1” value stood at 6.2. In addition, in data set [3], the “tolerance (pI50) Cmpd. 2” value is listed as 6.2, the “tolerance (pI50) Cmpd. 3” value amounted to 6.4, the “tolerance (pI50) Cmpd. 4” value was 6.6 and the “tolerance (pI50) Cmpd. 5” value is listed as 6.0. In addition, in data set [3], the “tolerance (pI50) DKN” value is listed as 4.3, the “tolerance (pI50) MST” value is recorded as 5.3 and the “tolerance (pI50) TBT” value was 6.2. Besides, in the data set on T0 soybean plants (setting [5]), the “Number … (completely bleached)” value turned out to be 3, the “Number of T0 soybean plants … (slight tolerance)” value came out at 18, the “Number … (moderate tolerance)” value worked out at 39 and the “Number … (nearly perfect tolerance)” value was found to be 11.

B3: FLP129: PfHPPD variant E335P, G336F, K339A, A340Q (protein)
chain: MADLYENPMGLMGFEFIEFASPTPGTLEPIFEIMGFTKVATHRSKNVHLYRQGEINLILNNEPNSIASYFAAEHGPSVCGMAFRVKDSQKAYNRALELGAQPIHIDTGPMELNLPAIKGIGGAPLYLIDRFGEGSSIYDIDFVYLEGVERNPVGAGLKVIDHLTHNVYRGRMVYWANFYEKLFNFREARYFDIKGEYTGLTSKAMSAPDGMIRIPLNEESSKGAGQIEEFLMQFNGEGIQHVAFLTDDLVKTWDALKKIGMRFMTAPPDTYYEMLEGRLPDHGEPVDQLQARGILLDGSSVEGDKRLLLQIFSETLMGPVFFEFIQRKGDDGFGPFNFAQLFESIERDQVRRGVLTAD
modifications: HPPD variant - FLP129
notes: PfHPPD variant E335P, G336F, K339A, A340Q
B3: in data set [2], the “Activity DeltaE/24 min μg Protein” value was found to be 0.36 DeltaE/24 min μg Protein, the “tolerance (pI50) Cmpd. 2” value amounted to 5.4, the “tolerance (pI50) DKN” value is reported as 3.3 and the “tolerance (pI50) MST” value is 3.7. For the same molecule, the “tolerance (pI50) TBT” value in data set [2] is recorded as 4.8. In addition, in data set [3], the “mechanism of inhibition by diketonitrile” value is listed as “fully reversible inhibitors”; the “mechanism of inhibition by mesotrione” value is given as “fully reversible inhibitors”; the “mechanism of inhibition by tembotrione” value was “fully reversible inhibitors”; the “tolerance (pI50) Cmpd. 1” value was 6.1. In data set [3], the “tolerance (pI50) Cmpd. 2” value is listed as 5.8, the “tolerance (pI50) Cmpd. 3” value is on record as 5.9, the “tolerance (pI50) Cmpd. 4” value was 6.6 and the “tolerance (pI50) Cmpd. 5” value is listed as 6.1. Also, in data set [3], the “tolerance (pI50) DKN” value is recorded as 4.6, the “tolerance (pI50) MST” value was determined as 5.0 and the “tolerance (pI50) TBT” value came to 6.2. For the same molecule, in the data set on T0 soybean plants (setting [5]), the “Number … (completely bleached)” value is reported as 13, the “Number of T0 soybean plants … (slight tolerance)” value was 18, the “Number … (moderate tolerance)” value was 35 and the “Number … (nearly perfect tolerance)” value is on record as 12.
